Experimental data reported in FireProtDB (doi:10.1006/jmbi.1998.1906).

Settings: Homo sapiens, Thermal, DSC, glycine 0.05 M, reversible: yes, whole UniProt chain shown

B1: Lysozyme C wild type, P61626 (protein)
chain: MKALIVLGLVLLSVTVQGKVFERCELARTLKRLGMDGYRGISLANWMCLAKWESGYNTRATNYNAGDRSTDYGIFQINSRYWCNDGKTPGAVNACHLSCSALLQDNIADAVACAKRVVRDPQGIRAWVAWRNRCQNRDVRQYVQGCGV
pH 2.53
  Tm: 45.5 °C
  unfolding enthalpy (calorimetric): 75.4 kcal/mol
  unfolding enthalpy (van 't Hoff): 79.8 kcal/mol
pH 2.7
  Tm: 49.2 °C
  unfolding enthalpy (calorimetric): 82.5 kcal/mol
  unfolding enthalpy (van 't Hoff): 85.4 kcal/mol
pH 2.81
  Tm: 52 °C
  unfolding enthalpy (calorimetric): 85.9 kcal/mol
  unfolding enthalpy (van 't Hoff): 89.2 kcal/mol
pH 3.04
  Tm: 55.4 °C
  unfolding enthalpy (calorimetric): 91.6 kcal/mol
  unfolding enthalpy (van 't Hoff): 95 kcal/mol
pH 3.14
  Tm: 57.8 °C
  unfolding enthalpy (calorimetric): 96.4 kcal/mol
  unfolding enthalpy (van 't Hoff): 97.4 kcal/mol
